The subject of one test is HT-1080 cells. The test can be described thus: Flow cytometry antibody staining without permeabilization. It is filed as cell-based, human. As for the experimental part:
HT-1080 cells were treated with DMSO or 1 μM RSL3 for 4 h. The cells were harvested by 0.25% Trypsin-EDTA (1×) (Invitrogen 25200-114) and washed with HBSS once. The cells were resuspended in 5% goat serum (ThermoFisher 50197Z) for 30 min on ice. The cells were incubated with mAb 3F3 FMA (1:500 dilution), Transferrin Receptor/CD71 Monoclonal Antibody, Clone: H68.4, Invitrogen (Thermo Fisher Scientific Cat #13-6800, RRID:AB_2533029, 1:250 dilution), CD71 (3B8 2A1) (Santa Cruz Biotechnology Cat #sc-32272, RRID:AB_627167, 1:50 dilution), Anti-Malondialdehyde antibody (Abcam Cat #ab6463, RRID:AB_305484, 1:400 dilution), Anti-4 Hydroxynonenal antibody (Abcam Cat #ab46544, RRID:AB_722493, 1:50 dilution), and mouse mAb 1F83 (1:100 dilution), which specifically recognizes the malondialdehyde (MDA)-lysine adduct 4-methyl-1,4-dihydropyridine-3,5-dicarbaldehyde (MDHDC) (Yamada et al., 2001) for 1 h on ice. The cells were washed with HBSS for 5 min three times by centrifugation. […] Fluorescence intensity was measured on the FL1 channel with gating to record live cells only (gate constructed from DMSO treatment group). A minimum of 10,000 cells were analyzed per condition. […]

The subject of test [1] is TfR1 protein in HT-1080 cells. Nature of the test: Western blot of TfR1 during ferroptosis. It is filed as cell-based, human. Conditions: RSL3-induced and IKE-induced ferroptosis. As for the experimental part: HT-1080 cells were seeded in DMEM (Corning 10-013-CM) and 10% Hi-FBS with 1% penicillin and streptomycin (PS) with 1% MEM Non-Essential Amino Acids Solution (100×) (Thermo Fisher Scientific 11140-076) 16 h prior to use. DMSO or 1 μM of RSL3 was added and incubated for 4 h. Following treatment, the medium was aspirated from each dish and cells were washed twice with PBS. Cells were lysed with 70 μl lysis buffer (RIPA buffer from ThermoFisher, cat. 89900, 1 mM EDTA, 1 mM PMSF, 1× Halt™ protease inhibitor cocktail from ThermoFisher, cat. 78430 and 1× Halt™ phosphatase inhibitor cocktail from ThermoFisher, cat. 78426). Unlysed cells and debris were pelleted for 15 min at 16,000×g at 4° C. Samples were separated using SDS-PAGE and transferred to a polyvinylidene difluoride membrane. Transfer was performed using the iBlot2 system (Invitrogen). […]

“Also recorded” adds a separate entry of the source.

B1: 3F3-FMA: murine monoclonal IgG1 raised against ferroptotic membrane fractions; antigen is human transferrin receptor protein 1 (TfR1) (antibody, V domains shown)
VH: EVLLQQSGTELVRPGALVKLSCKASGFNIQDLYIHWVKQRPEQGLEWIGWIDPETDNTIYDPKFQGKASITADTSSNTAYLQLSSLTSEDTAMYYCSTGLLQWYFDVWGAGTAVTVSS
VL: DIVMTQSPSSLAMSIGQKVTMRCKSSQSLLNSYNQKNCLAWYQQKPGQSPKLLLYFVSTRESGVPDRFIGSGSGTDFTLTISSVQAEDLADYFCQQHYSTPLTFGAGTKLELK
Turning to B1, the “staining intensity in RSL3-treated cells by flow cytometry” value in the test on HT-1080 cells (1 μM RSL3, 4 h vs DMSO) is “increased intensities”. The “staining intensity in STS-induced apoptosis by flow cytometry” value with HT-1080 cells (1 μM STS, 6 h vs DMSO) is “decreased intensity; also recorded: decreased intensities”. For the same molecule, the “intensity of the bands in western blotting” value in test [1] is given as “increased intensity of the bands”.

For the origin of these results see patent publication US20220412989A1, “COMPOSITIONS AND METHODS FOR DETECTING CELLS UNDERGOING FERROPTOSIS USING AN ANTIBODY” (THE TRUSTEES OF COLUMBIA UNIVERSITY IN THE CITY OF NEW YORK, priority 2020, published 2022).
